# Results: patent US10064928B2, “Peptides and combination of peptides for use in immunotherapy against CLL and other cancers” (IMMATICS BIOTECHNOLOGIES GMBH, priority 2015, dated 2018)
# Target: HLA-A*02:01 (Homo sapiens, UniProt P04439, D140Y/D185E/D98H/E176V/E277Q/G131W/G231S/I119V/I121R/I166T/I218V/L300P/L318F/N151K/N90K/P208A/P217A/Q86G/Q94H/R138H/R169H/T345S)
# Test: MHC binding assay (UV-ligand exchange, beta2m ELISA)
# Details: binding of HLA-class I restricted peptides to HLA-A*02:01, β2m ELISA
# From the text: Candidate peptides for T cell based therapies according to the present invention were further tested for their MHC binding capacity (affinity). The individual peptide-MHC complexes were produced by UV-ligand exchange, where a UV-sensitive peptide is cleaved upon UV-irradiation, and exchanged with the peptide of interest as analyzed. Only peptide candidates that can effectively bind and stabilize the peptide-receptive MHC molecules prevent dissociation of the MHC complexes. To determine the yield of the exchange reaction, an ELISA was performed based on the detection of the light chain (β2m) of stabilized MHC complexes. The assay was performed as generally described in Rodenko et al. (Rodenko et al., 2006).
# 96 well MAXISorp plates (NUNC) were coated over night with 2 ug/ml streptavidin in PBS at room temperature, washed 4× and blocked for 1 h at 37° C. in 2% BSA containing blocking buffer. Refolded HLA-A*02:01/MLA-001 monomers served as standards, covering the range of 15-500 ng/ml. Peptide-MHC monomers of the UV-exchange reaction were diluted 100 fold in blocking buffer. Samples were incubated for 1 h at 37° C., washed four times, incubated with 2 ug/ml HRP conjugated anti-β2m for 1 h at 37° C., washed again and detected with TMB solution that is stopped with […]. Absorption was measured at 450 nm. Candidate peptides that show a high exchange yield (preferably higher than 50%, most preferred higher than 75%) are generally preferred for a generation and production of antibodies or fragments thereof, and/or T cell receptors or fragments thereof, as they show sufficient avidity to the MHC molecules and prevent dissociation of the MHC complexes.
row,Substance,"Peptide Exchange (MHC class I binding score, peptide exchange yield)"
1,345 (YLIEPDVELQRI; listed as Homo sapiens) [compound 345],“+++” (≥50 = +++)
2,135 (MTAGFSTIAGSV; listed as Homo sapiens) [compound 135],“+” (≥10% = +)
3,36 (FILTHVDQL; listed as Homo sapiens) [compound 36],“++++” (≥75% = ++++)
4,130 (LLVLIPVYL; listed as Homo sapiens) [compound 130],“+” (≥10% = +)
5,190 (VVMGTVPRL; listed as Homo sapiens) [compound 190],“+++” (≥50 = +++)
6,62 (GIIDGSPRL; listed as Homo sapiens) [compound 62],“+++” (≥50 = +++)
7,51 (FLVEAPHDWDL; listed as Homo sapiens) [compound 51],“++++” (≥75% = ++++)
8,382 (YLLPLLQRL; listed as Homo sapiens) [compound 382],“++++” (≥75% = ++++)
9,163 (SQLDISEPYKV; listed as Homo sapiens) [compound 163],“+++” (≥50 = +++)
10,311 (LLVDVEPKV; listed as Homo sapiens) [compound 311],“+++” (≥50 = +++)
11,6 (ALDTLEDDMTI; listed as Homo sapiens) [compound 6],“+++” (≥50 = +++)
12,222 (ALWELSLKI; listed as Homo sapiens) [compound 222],“+++” (≥50 = +++)
13,209 (ILQAELPSL; listed as Homo sapiens) [compound 209],“+++” (≥50 = +++)
14,348 (ALAKPPVVSV; listed as Homo sapiens) [compound 348],“+++” (≥50 = +++)
15,318 (NLQVTQPTV; listed as Homo sapiens) [compound 318],“+++” (≥50 = +++)
16,64 (KLLESVASA; listed as Homo sapiens) [compound 64],“+++” (≥50 = +++)

# Now from value to substance:
row,"Peptide Exchange (MHC class I binding score, peptide exchange yield)",Substance
1,“+++” (≥50 = +++),261 (SLVEAQGWLV; listed as Homo sapiens) [compound 261]
2,“+++” (≥50 = +++),298 (IILPVEVEV; listed as Homo sapiens) [compound 298]
3,“+++” (≥50 = +++),119 (VLPAEFFEV; listed as Homo sapiens) [compound 119]
4,“+++” (≥50 = +++),158 (SLPEAPLDV; listed as Homo sapiens) [compound 158]
5,“++” (≥20% = ++),75 (GLSIFAQDLRL; listed as Homo sapiens) [compound 75]
6,“+++” (≥50 = +++),283 (ILQPMDIHV; listed as Homo sapiens) [compound 283]
7,“+++” (≥50 = +++),161 (SMDDGMINV; listed as Homo sapiens) [compound 161]
8,“+++” (≥50 = +++),122 (LLIPVVPGV; listed as Homo sapiens) [compound 122]
9,“+++” (≥50 = +++),293 (ALDIMIPMV; listed as Homo sapiens) [compound 293]
10,“++” (≥20% = ++),271 (VIRNIVEAA; listed as Homo sapiens) [compound 271]
11,“+++” (≥50 = +++),297 (FLVEPQEDTRL; listed as Homo sapiens) [compound 297]
12,“+++” (≥50 = +++),303 (ILSQPTPSL; listed as Homo sapiens) [compound 303]
